Sequences and labels used below:
T1: recombinant human E-cadherin (R&D Systems 648-EC-100) (human, UniProt P12830 155-707)
T1 construct: Bought protein
T1 sequence (looked up): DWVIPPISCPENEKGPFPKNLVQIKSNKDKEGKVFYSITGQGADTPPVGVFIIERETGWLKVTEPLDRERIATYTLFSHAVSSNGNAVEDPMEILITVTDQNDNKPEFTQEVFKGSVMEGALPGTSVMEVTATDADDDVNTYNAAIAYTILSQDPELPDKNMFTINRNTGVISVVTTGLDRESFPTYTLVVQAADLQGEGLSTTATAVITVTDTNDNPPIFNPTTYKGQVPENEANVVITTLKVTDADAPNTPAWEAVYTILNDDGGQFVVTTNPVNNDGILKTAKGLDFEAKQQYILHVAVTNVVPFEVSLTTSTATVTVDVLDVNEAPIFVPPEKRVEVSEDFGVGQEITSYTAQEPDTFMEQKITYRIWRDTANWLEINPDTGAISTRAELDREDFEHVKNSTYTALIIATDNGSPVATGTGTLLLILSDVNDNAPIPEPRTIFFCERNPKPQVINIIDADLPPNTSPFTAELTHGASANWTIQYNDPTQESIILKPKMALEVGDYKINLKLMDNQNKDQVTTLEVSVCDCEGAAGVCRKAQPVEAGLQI

T2: mouse P-cadherin/Fc fusion protein (mouse, UniProt P10287 100-647, limits assumed)
T2 construct: also called mCad/Fc; not shown: Fc part of the fusion protein
T2 sequence (looked up): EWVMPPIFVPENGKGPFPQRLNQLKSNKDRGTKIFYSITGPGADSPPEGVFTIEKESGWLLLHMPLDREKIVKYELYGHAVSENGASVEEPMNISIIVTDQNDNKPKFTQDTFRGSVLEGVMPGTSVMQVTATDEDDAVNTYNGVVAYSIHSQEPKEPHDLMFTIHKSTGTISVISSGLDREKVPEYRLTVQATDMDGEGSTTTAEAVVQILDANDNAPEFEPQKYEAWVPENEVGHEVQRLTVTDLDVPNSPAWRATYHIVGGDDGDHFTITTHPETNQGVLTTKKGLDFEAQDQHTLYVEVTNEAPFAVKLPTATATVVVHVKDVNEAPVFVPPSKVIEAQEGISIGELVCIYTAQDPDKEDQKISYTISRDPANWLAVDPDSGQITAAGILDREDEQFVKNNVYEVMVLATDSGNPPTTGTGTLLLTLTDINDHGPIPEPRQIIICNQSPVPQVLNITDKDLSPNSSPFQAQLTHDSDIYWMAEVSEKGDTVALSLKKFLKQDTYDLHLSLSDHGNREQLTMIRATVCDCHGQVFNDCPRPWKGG

B1: 194-a02 (antibody, V domains shown)
VH: not shown
VL: QSALTQPASVSGSPGQSITISCTGTSNDVGAYNYVSWYQQHPGKAPKLILSEVNKRPSGVSNRFSGSKSGNTASLSISGLQAEDEADYYCSSFTSGLPWVLFGGGTKLTVL
notes: Tested as IgG converted from scFv
B2: 196-e06 (antibody, V domains shown)
VH: EVQLLESGGGLVQPGGSLRLSCAASGFTFSSYAMSWVRQAPGKGLEWVSAISGSGGSTYYADSVKGRFAISRDNSKNTLYLQMNSLRAEDTAVYYCAGSRTVQFDPWGQGTMVTVSS
VL: B1 VL with S91T, F93Y, S95M, L97S, P98T, W99F, V100M
notes: Tested as IgG converted from scFv; also called 196-e06 IgG
B3: g-194-b09 (antibody, V domains shown)
VH: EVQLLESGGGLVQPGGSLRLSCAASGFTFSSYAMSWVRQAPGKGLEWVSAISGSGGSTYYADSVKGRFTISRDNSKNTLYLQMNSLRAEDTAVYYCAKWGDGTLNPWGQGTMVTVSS
VL: B1 VL with I49M, L50I, S76T, L101V
notes: Tested as IgG
B4: 195-a09 (antibody, V domains shown)
VH: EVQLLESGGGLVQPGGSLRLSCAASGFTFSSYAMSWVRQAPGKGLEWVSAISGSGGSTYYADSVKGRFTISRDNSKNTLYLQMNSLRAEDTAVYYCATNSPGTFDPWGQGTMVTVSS
VL: B1 VL with S91T, F93Y, S95M, L97S, P98T, W99F, V100M
notes: Tested as IgG converted from scFv; also called 195-a09 IgG
B5: g-194-e06 (antibody, V domains shown)
VH: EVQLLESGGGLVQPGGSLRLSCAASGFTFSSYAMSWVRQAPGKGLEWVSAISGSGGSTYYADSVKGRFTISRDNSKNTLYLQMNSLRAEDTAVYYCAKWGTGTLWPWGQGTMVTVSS
VL: B1 VL with I49M, L50I, S76T
notes: Tested as IgG
B6: 198-a09 (antibody, V domains shown)
VH: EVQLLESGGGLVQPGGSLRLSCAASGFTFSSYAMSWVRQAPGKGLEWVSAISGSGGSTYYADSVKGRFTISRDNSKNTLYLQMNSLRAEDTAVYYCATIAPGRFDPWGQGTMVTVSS
VL: B1 VL with S13P, S91T, F93Y, S95M, L97S, P98T, W99F, V100M
notes: Tested as IgG converted from scFv; also called 198-a09 IgG
B7: g-194-g09 (antibody, V domains shown)
VH: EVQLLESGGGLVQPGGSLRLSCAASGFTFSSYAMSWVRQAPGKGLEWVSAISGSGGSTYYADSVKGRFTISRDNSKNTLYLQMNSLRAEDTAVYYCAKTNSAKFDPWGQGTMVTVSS
VL: B1 VL with I49M, L50I, S76T, F93Y, S95M, L97S, P98T, W99F, V100M
notes: Tested as IgG; also called germlined version of 194-g09
B8: g-196-g03 (antibody, V domains shown)
VH: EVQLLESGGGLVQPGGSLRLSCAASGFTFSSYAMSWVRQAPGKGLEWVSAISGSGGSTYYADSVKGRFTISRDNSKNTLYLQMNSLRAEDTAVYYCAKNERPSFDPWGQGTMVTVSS
VL: B1 VL with I49M, L50I, S76T, S91T, F93Y, S95M, L97S, P98T, W99F, V100M
notes: Tested as IgG; also called germlined version of 196-g03
B9: 129-1c4 (antibody, V domains shown)
VH: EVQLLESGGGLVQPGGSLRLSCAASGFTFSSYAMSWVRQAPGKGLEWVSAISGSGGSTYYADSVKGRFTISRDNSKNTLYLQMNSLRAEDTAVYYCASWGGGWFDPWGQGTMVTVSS
VL: B1 VL with L97S, P98T, W99F, V100M
notes: also called parent IgG
B10: 196-g03 scFv (scFv, V domains shown)
VH: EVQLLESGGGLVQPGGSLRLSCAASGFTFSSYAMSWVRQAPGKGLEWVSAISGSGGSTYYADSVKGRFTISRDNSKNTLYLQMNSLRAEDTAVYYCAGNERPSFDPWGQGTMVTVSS
VL: B1 VL with S91T, F93Y, S95M, L97S, P98T, W99F, V100M
notes: Single chain Fv in the assay
B11: 194-g09 scFv (scFv, V domains shown)
VH: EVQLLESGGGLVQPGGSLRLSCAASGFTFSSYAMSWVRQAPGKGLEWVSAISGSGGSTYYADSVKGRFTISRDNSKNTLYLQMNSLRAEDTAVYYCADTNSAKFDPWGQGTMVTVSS
VL: B1 VL with Q40R, D87E, F93Y, S95M, L97S, P98T, W99F, V100M
notes: Single chain Fv in the assay
B12: scFv variant of 129-1c4 with VH CDR3 SEQ ID NO: 207 and VL CDR3 SEQ ID NO: 291 (scFv, V domains shown)
VH: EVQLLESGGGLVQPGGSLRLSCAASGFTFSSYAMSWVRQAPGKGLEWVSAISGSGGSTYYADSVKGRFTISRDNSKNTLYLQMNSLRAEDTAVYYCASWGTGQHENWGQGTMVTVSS
VL: B1 VL with L97S, P98T, W99F, V100N
notes: His-tagged purified scFv; also called 207 / 291
B13: scFv variant of 129-1c4 with VH CDR3 SEQ ID NO: 163 and VL CDR3 SEQ ID NO: 43 (scFv, V domains shown)
VH: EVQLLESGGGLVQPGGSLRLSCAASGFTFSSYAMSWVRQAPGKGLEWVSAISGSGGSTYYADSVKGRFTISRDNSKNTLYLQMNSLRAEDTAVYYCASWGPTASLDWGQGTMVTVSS
VL: B1 VL with S91T, F93Y, S95M, L97S, P98T, W99F, V100M
notes: His-tagged purified scFv; also called 163 / 43
B14: 194-b09 scFv (scFv, V domains shown)
VH: not shown
VL: B1 VL with L101V
notes: Single chain Fv in the assay

Residue numbers refer to the chain shown, from its start. Bounds are passed on as bounds.

The target of one assay is T3, Recombinant human P-cadherin Fc (R&D Systems 861-PC-100) (human, UniProt P22223 108-654).
T3 construct: also called recombinant human P-cadherin/Fc fusion protein; hCad/Fc; not shown: Fc part of the bought fusion protein
Kind of assay: ELISA on coated antigen, relative KD.
B1: the Kd was 0.116 nM.

Take B2: the Kd turned out to be 0.062 nM.

On to B3, for which the equilibrium dissociation constant (Kd) turned out to be 0.788 nM.

Take B4: the Kd is 0.12 nM.

Consider B5, for which the Kd stood at 0.191 nM.

On to B6, for which the Kd came out at 0.078 nM.

In the case of B7, the Kd stood at 2.6 nM.

As for B8, the Kd is 0.449 nM.

A further assay has as its target T1, recombinant human E-cadherin (R&D …). The assay can be described thus: ELISA on coated antigen, relative KD.
For the molecule B1, the Kd turned out to be 0.682 nM.

On to B2, for which the Kd is 0.187 nM.

On to B3, for which the Kd turned out to be 2.16 nM.

As to B4, the dissociation constant (Kd) was found to be 11.5 nM.

As to B5, the Kd was found to be 0.794 nM.

For the molecule B6, the Kd was 19.4 nM.

For the molecule B8, the dissociation constant (Kd) is 7.51 nM.

The target in another assay is T4, human P-cadherin on the surface of cells (human, UniProt P22223 108-829). The assay can be described thus: cell-based or functional assay.
For the molecule B9, the “SW480 Spheroid Disruption Assay, Fold Increased Disruption vs Control at 5 nM” value came out at 4 fold.

In the case of B1, the “SW480 Spheroid Disruption Assay, Fold Increased Disruption vs Control at 5 nM” value worked out at 10 fold.

As to B2, the “SW480 Spheroid Disruption Assay, Fold Increased Disruption vs Control at 5 nM” value was determined as 10 fold.

For B3, the “SW480 Spheroid Disruption Assay, Fold Increased Disruption vs Control at 5 nM” value was 10 fold.

For B4, the “SW480 Spheroid Disruption Assay, Fold Increased Disruption vs Control at 5 nM” value was found to be 10 fold.

As to B6, the “SW480 Spheroid Disruption Assay, Fold Increased Disruption vs Control at 5 nM” value amounted to 13 fold.

With B7, the “SW480 Spheroid Disruption Assay, Fold Increased Disruption vs Control at 5 nM” value is 14 fold.

Take B8: the “SW480 Spheroid Disruption Assay, Fold Increased Disruption vs Control at 5 nM” value stood at 13 fold.

In another assay the target is T4, human P-cadherin on the surface of cells. Kind of assay: epitope competition on A431 cells; competitor: biotinylated 129-1c4 IgG, DELFIA.
In turn, B9 returned a 50% inhibitory concentration (IC50) of 29 nM.

A further assay shares this target. The assay can be described thus: cell-based or functional assay. This is another data set of the same source.
Turning to B1, the “A431 Adhesion Assay Mean IC50 (nM) (n = 3)” value was 0.217 nM.

B2: the “A431 Adhesion Assay Mean IC50 (nM) (n = 3)” value is 0.117 nM.

On to B4, for which the “A431 Adhesion Assay Mean IC50 (nM) (n = 3)” value was 0.114 nM.

In the case of B6, the “A431 Adhesion Assay Mean IC50 (nM) (n = 3)” value turned out to be 0.097 nM.

For a further assay, the target named is T3, Recombinant human P-cadherin Fc (R&D …). Kind of assay: SPR (BIACORE 3000), hCad/Fc immobilised, scFv as analyte, 1:1 fit.
Consider B10, for which the Kd was 1.1 nM and the koff stood at 0.0007 s⁻¹.

Regarding B11, the Kd worked out at 2.6 nM and the koff is 0.0016 s⁻¹.

The target of a further assay is T4, human P-cadherin on the surface of cells. The assay can be described thus: epitope competition on A431 cells; competitor: biotinylated 129-1c4 IgG at 3x KD, DELFIA.
Molecule B12 gave a half-maximal inhibitory concentration (IC50) of 2.73 nM.

With B13, the IC50 worked out at 2.45 nM.

For the next assay, the target named is T3, Recombinant human P-cadherin Fc (R&D …). The assay can be described thus: ELISA; KD on E-cadherin over KD on P-cadherin.
In the case of B1, the “KD(E)/KD(P)” value worked out at 6.

In the case of B2, the “KD(E)/KD(P)” value came out at 3.

As to B3, the “KD(E)/KD(P)” value was determined as 3.

On to B4, for which the “KD(E)/KD(P)” value came out at 96.

Take B5: the “KD(E)/KD(P)” value was found to be 4.

B6: the “KD(E)/KD(P)” value is 249.

In the case of B7, the “KD(E)/KD(P)” value is above 100.

Regarding B8, the “KD(E)/KD(P)” value was determined as 17.

For the next assay, the target named is T4, human P-cadherin on the surface of cells. Kind of assay: cell-based or functional assay. The source holds these as a separate data set.
Regarding B3, the “A431 Adhesion Assay Mean IC50 (nM) (n = 2)” value is 0.77 nM.

For the molecule B5, the “A431 Adhesion Assay Mean IC50 (nM) (n = 2)” value stood at 0.77 nM.

In the case of B7, the “A431 Adhesion Assay Mean IC50 (nM) (n = 2)” value was 1 nM.

For B8, the “A431 Adhesion Assay Mean IC50 (nM) (n = 2)” value is 1.05 nM.

For another assay, the target named is T2, mouse P-cadherin/Fc fusion protein. Kind of assay: SPR (BIACORE 3000), mCad/Fc immobilised, scFv as analyte, 1:1 fit.
Turning to B10, the Kd was 0.76 nM and the koff amounted to 0.00047 s⁻¹.

B14 showed a Kd of 11 nM.

Consider B11, for which the Kd stood at 1.8 nM and the koff was found to be 0.00081 s⁻¹.

The target of a further assay is T1, recombinant human E-cadherin (R&D …). The assay can be described thus: ELISA on coated E-cadherin, IgG titrated from 50 nM down to 0.64 nM.
For the molecule B7, the binding result is given as “no binding (tested: 50 nM)”.

Another assay deals with T4, human P-cadherin on the surface of cells. Kind of assay: cell-based or functional assay. The source holds these as a separate data set.
On to B9, for which the “SW480 Aggregation Assay Mean IC50” value was 35 nM.

As to B1, the “SW480 Aggregation Assay Mean IC50” value was 1.1 nM.

Take B2: the “SW480 Aggregation Assay Mean IC50” value worked out at 1.9 nM.

Take B3: the “SW480 Aggregation Assay Mean IC50” value came to 0.9 nM.

In the case of B4, the “SW480 Aggregation Assay Mean IC50” value stood at 1.7 nM.

Take B6: the “SW480 Aggregation Assay Mean IC50” value is 2.9 nM.

Consider B7, for which the “SW480 Aggregation Assay Mean IC50” value is 2.6 nM.

Take B8: the “SW480 Aggregation Assay Mean IC50” value is 0.9 nM.

The target is the same in a further assay. Kind of assay: cell-based or functional assay. This is another data set of the same source.
With B9, the “IC50 in the A431 adhesion assay” value lay in the range of 1000 to 3000 nM.

The values are drawn from patent US20060240001A1 (AGOURON PHARMACEUTICALS, published 2006).
